Laboratory results: patent publication US20250277030A1, “ANTI-NAPI2B ANTIBODIES AND METHODS OF USE” (Zymeworks BC Inc., priority 2022, published 2025)

Target: Insulin (Sigma-Aldrich, 19278) (UniProt P01308)
Assay: non-specific binding ELISA, insulin coated at 5 µg/mL, antibody at 100 nM

Insulin (Sigma-Aldrich, 19278), sequence (P01308 25-54 limits assumed, chain 1 of 2): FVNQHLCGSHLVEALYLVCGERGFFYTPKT
Insulin (Sigma-Aldrich, 19278), sequence (P01308 90-110 limits assumed, chain 2 of 2): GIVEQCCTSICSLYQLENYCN

NS-ELISA binding score (ratio of signal between antibody-treated and untreated): 1.03
B1: v29452 humanized anti-NaPi2b antibody (H1L3) (antibody, human IgG1, kappa, V domains shown)
VH: QVQLVQSGAEVKKPGASVKVSCKASGFTFTSYNVHWVRQAPGQGLEWMGAISPGNGDLSYAQKFQGRVTMTRDTSTSTVYMELSSLRSEDTAVYYCARGRTGMGAVDYWGQGTLVTVSS
VL: DVQMTQSPSSLSASVGDRVTITCRASQDVYSYLNWYQQKPGKAVKLLIYYTSRLQSGVPSRFSGSGSGTDYTLTISSLQPEDIATYYCQQYNIFPWTFGQGTKLEIKR
